Data published in the DeepSol protein solubility set.

Test: soluble on expression in E. coli; label from the status in PepcDB or PDB records

Sequence | soluble on expression in E. coli
MIEKKKNRSKLKREAILAAAKKAYQDDGVQNTSMDKLASLAQVSKRTVYNHFSSKEALVMELLSDLWQNSMADIDIQFSENVSIQDQLERLLLAELNVIGAQSYLDLAKVAFGHFFYKPDELQLQVEKMAEQETALSRWLQLMMDTKKLTIEDKHKAGVQLHSLLKGSAFWPQLVGMRAVLSSEEKEQLVTETADMFLSRYLKR | not soluble
MIEKVLVVVIIGVVGAYAQGSCRTDQHEMTCRGKNSLHDLKKDQDYLEVDTLNVHQAKLDLTDDLVPDGINLSHLTLLNATDNQITRIGRRGFDKIRNMQFLYLSINQISHSQPDPFQALEKLKRLEMNDALDGNMEEKSDMLRNFFHSKNSFVHLAQIELNKNKIEGIYPKTFCGIQGLQRLELSNNRIPSFDFARTCLKELKALMLAGNLIQKIPADIWDFLPSLSSLDISNNPIDCDCATIRLLSGDDVVFLNQADTKCASPPELEGKRIFELSRDYCKTTRNPRGKASFFQFLVLFVIAVGSEFLF | not soluble
MIELKHVTFGYNKKQMVLQDINITIPDGENVGILGESGCGKSTLASLVLGLFKPVKGEIYLSDNAVLPIFQHPLTSFNPDWTIETSLKEALYYYRGLTDNTAQDQLLLQHLSTFELNAQLLTKLPSEVSGGQLQRFNVMRSLLAQPRVLICDEITSNLDVIAEQNVINILKAQTITNLNHFIVISHDLSVLQRLVNRIIVLKDGMIVDDFAIEELFNVDRHPYTKELVQAFSY | not soluble
MIELPVVPSASDRKSKPDWLRVKLPIGKEYTKLRALVDEHKLHTICQSGNCPNMGECWGAGTATFMILGNVCTRSCSFCAVATGRPTEYDIDEPKRVAEAVRLMNVKHCVITSVNRDELKDKGAEVWYQTVVRVKEESPQTTIETLIPDVKSDWASLERMISGGQEVVSHNMETVERLYRRVRPQAKYSRSLEEIQRIKAFGKRTKSGIMLGLGETKDEVLKAMDDLVAHGLDVLTLGQYLQPTKMHLEVAEFIHPDQFAEYKEIGLSKGLNYVESGPLVRSSYHAEKHI | not soluble
MIEPVLENVQPNSAASKAGLQAGDRIVKVDGQPLTQWVTFVMLVRDNPGKSLALEIERQGSPLSLTLIPESKPGNGKAIGFVGIEPKGKASPV | soluble
MIEYSSFVLDNGLKVFVHEDRTTSMAALNILYDVGSKDEVVTKTGFAHLFEHLMFGGSKHIPSYDEALQKAGGENNAFTSPDITNYYITIPANNIETAFWLESDRMMALSFDPKVLEVQRSVVIEEFKQRYLNQPYGDVWLKLRPLAYKEHSYKWATIGKEISHIEEATMDDVRDFFYSYYLPNNAYMVVAGNVTLEQVKKLSEKWFAPIPSGTRRKRNIP | not soluble
MIFKKEPKRYTVEDTIPYLRLLKSGICQLDEKHFSKSIAFQDINYQLALDEDRDLIFNQFANFLNSFDPSISIEFSYVNQLGRNEEMKSAIQIPDKKDGFDDIRFEFREMLKSQIVKGNNGLKKSKYVTFTVEADNLEQATSKLERLEIDILSNLKSMGVRAESLNGEERLKILHDVLNPNKTFEFSYKDLKKRESTKTYIVPDEFNFTPSRYFKFGKFIGATSHFQILASELSDRMLSEFLDIDDNINISFHIRAIDQSEAIKMVKRKNTDIDKMKIEENKKAVRSGYDMDILPSDLITYGEDVKSLLKDLQTRDERMFVVSIVFMNFARTVQKLDNTIAQISSIANKHNCKLKRLDHSQEQGLVSMLPLGVNKIEIDRGLTSSSTAVFMPFTTEELFINSSNSLYYGLNALSHNLIMADRKKLKNPNGLILGTPGSGKSFSAKREMANAILVTDDDVIICDPEGEYGNLVRQFKGEVIKVSSKSKDYLNPLDINMNYGDGDAPLKDKANFIMSMLELVVGGSGLTAEEKSVIDRCLPKIYEKYFEHPTPDNMPILQDLYDMLKGQEEKVGKKLATEMEIYVSGSLNVFNHRSNVDLNKKLLCFDIKELGSQLKKIGMLVIQDQVWNKVSQNRGNKATRYYIDEFHLLLKDEQTASYSVEIWKRFRKWGGIPTGITQNVKDLLMSKEIENIFDNTDFVLMLNQASGDREILARKLKISLPQLRYVTNSNEGEGLLFFGNTIVPFLDKFPKDTILYQKMTTKPEEVRLEHHHHHH | soluble
MIGCLPMMRSLERHAVILGLLRQQEHVTIEAMAAACDASLQTIRRDLNQLGEDGRVVRYHGGARLADHARSATYEVRSASHVREKVAAGQLLARFIPDGATLFIAGGSTLALAAQELRACEGLTIVTNNLHAAVTLYDKTGFDVCVLGGTMRPASGSMIGEEAVRMIERYSLDFAVIGTCGISPDGALLEYDQSLVPPLLAMISNARRTVLVADGSKFGAKGIVRAAPLSAVNHFVTDRAPEGRAADLLARTGVKVHHPANPNLSSQDAAADGRELEHHHHHH | not soluble
MIGDFWKESNGLATANDMDKNLAYMYTMKKKARGQLLFTKEKLAEYGSKVGLFPGVKDWFRRIRQYGADREVIIEHYIISSGLKEMIEGTSIAKDFKEIYATSFYFDDDGVAVWPAQVVNYTNKTQFLFRISKGVLNVNDEAVNDSFAPDEIRVPFHNMIYIGDSDTDIPCMKLVNSHGGYSIGVFNPKERNEEKAKKRVYKMIRDNRIGYF | not soluble
MIGELVKDKILIKNIEDARLIYKMGYYGKPIGISKPKSAEEINSELILSLIEGVYLVKKGKLEIVSNGERLDFERLYQIGVTQIPRFRILYSVYEDLREKGYVVRSGIKYGADFAVYTIGPGIEHAPYLVIALDENSQISSNEILGFGRVSHSTRKELILGIVNLTNGKIRYIMFKWLKM | soluble
MIGFIGSVFSPWYRWSGRKEPQNHCCLNVATYGPGGRFTMTDRGRAALRQSPDTLTVGPSRMHWTGTQLIVEVNEISSPPLVSPVKGRIVLTPTGITDVEVTLKDDGSHIWRPFAPTARIEVDLTQGHRWHGHGYFDANFGTAALEADFRFWTWGRYPVADGAACFYDATRRDGSRLELGLHVAADGRARLIQPPPEARFARSRWLVERHTPADPGTRPRQVMSMLDAPFYSRAMVETTVFGQKTVGVHEALDLRRFRSPLLMPMLAVRVPRRPGWSF | not soluble
MIGYPIVFRCCECTVEEQTMEHLESHIWSRHLQAFPFKCAYCDFPALSAISLMDHFAQNHSDVAIVEFKRNLEDEKRFRKMVADSIAIEIDETSQQDSSTQMTVLQPMMQQGTAQMILLPPEGSQYDEIVDHRGPDEDDFGVLDDDENIEELIDDDDDDDYIDELGNPVFIGAHDDSDYILEDDLSPQGPIRSSNNYHLKYIRTRRMDKLIDNVVVNATQRDSPEQEDCSTSGVAFADGQTNSGKMGRFSCDRCSRTFKYQSKLDEHRRTHLGVKPFQCHYCTRQFSQRGALKTHMRLHTGERPFVCQWECGKQFASSSAKSHHEKTHSGERPYICNVCGKSFTKNSHVIRHLKNIHNRELAQQDAMLRGDDVQSTDESLNIGSARSQMSDIEPRGKEIGVVHDIVEQIHEERKDFMRL | not soluble
MIHCDPFSINCFWENVIKFLQYDHSMFKIAITSVPARVDVSDLDRSLAYFLSDIGYIPKINPSTDMNSIKNSVYFRLFKECFLMNGERFWTPEELMSYLGTSRSTLYRHLNKLKYMDLLEEVKDGKIKKYRIRSGDILKAWSWVEINVKMAMDNYRSNVEHIVDLIRSNSNSNLRPLEHHHHHH | not soluble
MIHETAQIHPTSVVEEGAIIGANVKIGPFCFVDSKVEIGEGTELLSHVVVKGPTKIGRFNRIFQFASIGEACQDLKYAGEDTQLIIGDRNTIRESVTMHRGTVQDKGITIVGSDNLFMINAHVAHDCVIGDRCIFANNATLAGHVKVGNQAIVGGMSAIHQFCHIGDHCMLGGGSIVVQDVPPYVMAQGNHCAPFGINVEGLKRRGFDKAEIHAIRRAYKSLYRNGLTLEAAKAEIAQEAEQYPSVKLFLDFLEKSERGIIR | not soluble
MIIKPRIRGFICTTTHPVGCEANVKEQIAYTKAQGPIKNAPKRVLVVGASSGYGLSSRIAAAFGGGASTIGVFFEKEGTEKKPGTAGFYNAAAFEKLAREEGLYAKSLNGDAFSNEAKQKTIDLIKEDLGQVDMVVYSLASPVRKMPETGELIRSALKPIGETYTSTAVDTNKDVIIEASVEPATEEEIKDTVTVMGGEDWELWINALSDAGVLAEGCKTVAYSYIGTELTWPIYWDGALGKAKMDLDRAAKALNEKLGATGGSANVAVLKSVVTQASSAIPVMPLYIAMVFKKMREEGVHEGCMEQIYRMFSQRLYKEDGSAAEVDDMNRLRLDDWELREDIQQHCRELWPQITTENLKELTDYVEYKEEFLKLFGFGVEGVDYEADVNPAVETDFIQI | soluble
